# Results from paper PMC6555819, “Comprehensive study of nuclear receptor DNA binding provides a revised framework for understanding receptor specificity”.
# B1: NRC3_wobSeed143_DR5_G12T_o1 (dsDNA)
# DNA 1: GCAGAACGAGGTCACGCTGAGTTGATAGCAGAGTAGGCGATTGACAGCGTAGAATGAAGG
# DNA 2: CCTTCATTCTACGCTGTCAATCGCCTACTCTGCTATCAACTCAGCGTGACCTCGTTCTGC
# B2: NRC3_wobSeed75_DR3_A12T_o1 (dsDNA)
# DNA 1: GCTCTCGGAGGTCACGAAGGTCAGAGCTTTCCAGAGGCGATTGACAGCGTAGAATGAAGG
# DNA 2: CCTTCATTCTACGCTGTCAATCGCCTCTGGAAAGCTCTGACCTTCGTGACCTCCGAGAGC
# B3: NRC3_wobSeed1_DR0_T8A_o1 (dsDNA)
# DNA 1: GCCAAACAAGGTCAAGGTCAAAGTCGGTTTGTGCCAGCGATTGACAGCGTAGAATGAAGG
# DNA 2: CCTTCATTCTACGCTGTCAATCGCTGGCACAAACCGACTTTGACCTTGACCTTGTTTGGC
# B4: NRC3_wobSeed25_DR1_T8C_o1 (dsDNA)
# DNA 1: GCCAAACCAGGTCAAAGGTCAAAGTCGAGCCAACCAGCGATTGACAGCGTAGAATGAAGG
# DNA 2: CCTTCATTCTACGCTGTCAATCGCTGGTTGGCTCGACTTTGACCTTTGACCTGGTTTGGC
# B5: NRC3_random_hg19_277_o1 (dsDNA)
# DNA 1: GCGGTGGCACACGCATGGAATCCCAGCGCTTTGGGAGCGATTGACAGCGTAGAATGAAGG
# DNA 2: CCTTCATTCTACGCTGTCAATCGCTCCCAAAGCGCTGGGATTCCATGCGTGTGCCACCGC
# B6: NRC3_wobSeed93_DR3_A22C_o1 (dsDNA)
# DNA 1: GCAGTCAAAGTTCATCTAGGTCACGTAAGATATGCTGCGATTGACAGCGTAGAATGAAGG
# DNA 2: CCTTCATTCTACGCTGTCAATCGCAGCATATCTTACGTGACCTAGATGAACTTTGACTGC
# B7: NRC3_random_hg19_142_o1 (dsDNA)
# DNA 1: GCGGTACTCAGTATGTGAAGAATCATGTTGAGGCAGGCGATTGACAGCGTAGAATGAAGG
# DNA 2: CCTTCATTCTACGCTGTCAATCGCCTGCCTCAACATGATTCTTCACATACTGAGTACCGC
# B8: NRC3_wobSeed124_DR5_T23G_o1 (dsDNA)
# DNA 1: GCCCTACTGGGCCATTCAGAGGGCATTGATCATATGGCGATTGACAGCGTAGAATGAAGG
# DNA 2: CCTTCATTCTACGCTGTCAATCGCCATATGATCAATGCCCTCTGAATGGCCCAGTAGGGC
# B9: NRC3_wobSeed53_DR2_A17T_o1 (dsDNA)
# DNA 1: GCCCTTACGGGTCACGTGGTTATAGCACGACGAGCGGCGATTGACAGCGTAGAATGAAGG
# DNA 2: CCTTCATTCTACGCTGTCAATCGCCGCTCGTCGTGCTATAACCACGTGACCCGTAAGGGC
# B10: NRC3_wobSeed45_DR1_A9T_o1 (dsDNA)
# DNA 1: GCTGTCAATGTTCAAAGGTAACGTAAGTATCCACACGCGATTGACAGCGTAGAATGAAGG
# DNA 2: CCTTCATTCTACGCTGTCAATCGCGTGTGGATACTTACGTTACCTTTGAACATTGACAGC
# B11: NRC3_random_hg19_491_o1 (dsDNA)
# DNA 1: GCCGCCTTTAGATTGCAGGCTCCTGGAGAGCTGTCTGCGATTGACAGCGTAGAATGAAGG
# DNA 2: CCTTCATTCTACGCTGTCAATCGCAGACAGCTCTCCAGGAGCCTGCAATCTAAAGGCGGC
# B12: NRC3_random_hg19_198_o1 (dsDNA)
# DNA 1: GCAGTTATGTCCACTTGCATAAGTGCAACGTTTGGCGCGATTGACAGCGTAGAATGAAGG
# DNA 2: CCTTCATTCTACGCTGTCAATCGCGCCAAACGTTGCACTTATGCAAGTGGACATAACTGC
# B13: NRC3_random_hg19_388_o1 (dsDNA)
# DNA 1: GCACAAGTCTACAAACCCTGGGAGAATGAGAAGTGTGCGATTGACAGCGTAGAATGAAGG
# DNA 2: CCTTCATTCTACGCTGTCAATCGCACACTTCTCATTCTCCCAGGGTTTGTAGACTTGTGC
# B14: NRC3_random_hg19_273_o1 (dsDNA)
# DNA 1: GCTGCAGGGTTTCTACCGAGAAGTCTGCTGTTAGTCGCGATTGACAGCGTAGAATGAAGG
# DNA 2: CCTTCATTCTACGCTGTCAATCGCGACTAACAGCAGACTTCTCGGTAGAAACCCTGCAGC
# B15: NRC3_wobSeed119_DR4_G12T_o1 (dsDNA)
# DNA 1: GCGGAACGAGGTCATTCGAGTTGATAGCATGGCGATGCGATTGACAGCGTAGAATGAAGG
# DNA 2: CCTTCATTCTACGCTGTCAATCGCATCGCCATGCTATCAACTCGAATGACCTCGTTCCGC
# B16: NRC3_wobSeed34_DR1_G6A_o1 (dsDNA)
# DNA 1: GCATCAAAAGGTCGAAGGTGAGTATACCCACCCGAAGCGATTGACAGCGTAGAATGAAGG
# DNA 2: CCTTCATTCTACGCTGTCAATCGCTTCGGGTGGGTATACTCACCTTCGACCTTTTGATGC
# B17: NRC3_random_hg19_177_o1 (dsDNA)
# DNA 1: GCATCTTTAGCAAGATACTTCATAGGTACTACTGTGGCGATTGACAGCGTAGAATGAAGG
# DNA 2: CCTTCATTCTACGCTGTCAATCGCCACAGTAGTACCTATGAAGTATCTTGCTAAAGATGC
# B18: NRC3_random_hg19_28_o1 (dsDNA)
# DNA 1: GCCATCTAAAGCCTTGACAGGCTGGGATAGCTGCTTGCGATTGACAGCGTAGAATGAAGG
# DNA 2: CCTTCATTCTACGCTGTCAATCGCAAGCAGCTATCCCAGCCTGTCAAGGCTTTAGATGGC
# B19: NRC3_random_hg19_444_o1 (dsDNA)
# DNA 1: GCGGGTGTGGTCGTGGGCACCTGCAGTCCCAGCTACGCGATTGACAGCGTAGAATGAAGG
# DNA 2: CCTTCATTCTACGCTGTCAATCGCGTAGCTGGGACTGCAGGTGCCCACGACCACACCCGC
# B20: NRC3_wobSeed13_DR0_A14T_o1 (dsDNA)
# DNA 1: GCCGTCCAAGGTCTAGGTCAGTGAAAGAGACTCGAAGCGATTGACAGCGTAGAATGAAGG
# DNA 2: CCTTCATTCTACGCTGTCAATCGCTTCGAGTCTCTTTCACTGACCTAGACCTTGGACGGC
# Molecular target: RXRa (Homo sapiens, UniProt P19793)
# Assay: no ligand; PBM; 180 nM; PBS pH 7.4, 2% milk, 0.02% Triton X-100, 1 mM DTT, BSA, 0.4 mg/ml salmon testes DNA
# Conditions: tags: His cleaved; chain copies: 2; label: surface-attached array probe
# RXRa, sequence (P19793 whole entry): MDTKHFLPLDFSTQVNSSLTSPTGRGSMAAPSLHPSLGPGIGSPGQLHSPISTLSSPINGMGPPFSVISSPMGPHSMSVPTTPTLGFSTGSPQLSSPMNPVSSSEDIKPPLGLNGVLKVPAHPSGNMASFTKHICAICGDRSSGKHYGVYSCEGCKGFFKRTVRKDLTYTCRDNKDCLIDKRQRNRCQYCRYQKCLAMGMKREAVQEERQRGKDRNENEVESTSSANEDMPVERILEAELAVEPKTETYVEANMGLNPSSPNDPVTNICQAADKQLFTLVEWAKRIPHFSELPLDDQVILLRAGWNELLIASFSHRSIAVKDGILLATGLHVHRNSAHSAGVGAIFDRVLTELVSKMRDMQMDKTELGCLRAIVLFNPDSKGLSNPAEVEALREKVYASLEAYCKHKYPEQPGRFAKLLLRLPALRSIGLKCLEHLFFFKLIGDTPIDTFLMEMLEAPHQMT
row,Binder,binding signal
1,B1,8.4 PBM z-score against 500 random probes
2,B2,8.41 PBM z-score against 500 random probes
3,B3,7.79 PBM z-score against 500 random probes
4,B4,10.8 PBM z-score against 500 random probes
5,B5,-0.54 PBM z-score against 500 random probes

# Molecular target: LXRa:RXRa (Homo sapiens, UniProt Q13133;P19793 full;full)
# Assay: no ligand; PBM; 270 nM : 90 nM RXRa; PBS pH 7.4, 2% milk, 0.02% Triton X-100, 1 mM DTT, BSA, 0.4 mg/ml salmon testes DNA
# Conditions: tags: His kept;His cleaved; copies: 1;1; label: surface-attached array probe
# Summary of the method: (§1)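 Ligand-free nuclear receptor dimers were bound for 1 h to custom Agilent 4×180K protein-binding microarrays. Detection used antibodies against each partner (one per run). Binding z-scores rest on regression-normalized fluorescence, with random background probes as the reference.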
# LXRa:RXRa, sequence (Q13133 whole entry, chain 1 of 2): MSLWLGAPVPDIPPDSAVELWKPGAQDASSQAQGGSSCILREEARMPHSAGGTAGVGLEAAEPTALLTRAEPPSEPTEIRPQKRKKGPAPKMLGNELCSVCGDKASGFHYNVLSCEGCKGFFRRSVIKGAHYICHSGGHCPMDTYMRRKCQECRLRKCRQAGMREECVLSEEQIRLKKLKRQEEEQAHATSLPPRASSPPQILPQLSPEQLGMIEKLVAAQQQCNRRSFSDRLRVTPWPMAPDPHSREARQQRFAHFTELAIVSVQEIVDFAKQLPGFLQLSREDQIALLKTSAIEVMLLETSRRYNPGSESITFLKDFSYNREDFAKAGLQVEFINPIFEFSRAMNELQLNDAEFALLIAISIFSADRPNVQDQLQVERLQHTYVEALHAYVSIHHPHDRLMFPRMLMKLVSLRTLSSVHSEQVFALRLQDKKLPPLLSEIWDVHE
# LXRa:RXRa, sequence (P19793 whole entry, chain 2 of 2): as the sequence (P19793 whole entry) above
row,Binder,binding signal
1,B6,6.64 PBM z-score against 500 random probes
2,B7,0.28 PBM z-score against 500 random probes
3,B8,-0.01 PBM z-score against 500 random probes
4,B9,3.8 PBM z-score against 500 random probes
5,B3,6.69 PBM z-score against 500 random probes
6,B10,0.41 PBM z-score against 500 random probes
7,B4,7.81 PBM z-score against 500 random probes
8,B11,-0.82 PBM z-score against 500 random probes
9,B12,-0.41 PBM z-score against 500 random probes
10,B5,-0.75 PBM z-score against 500 random probes
11,B13,-0.44 PBM z-score against 500 random probes

# Molecular target: RARb:RXRa (Homo sapiens, UniProt P10826;P19793 full;full)
# Assay: as above
# Conditions: tags: His kept;His cleaved; copies: 1;1; label: surface-attached array probe
# Summary of the method: as §1
# RARb:RXRa, sequence (P10826 whole entry, chain 1 of 2): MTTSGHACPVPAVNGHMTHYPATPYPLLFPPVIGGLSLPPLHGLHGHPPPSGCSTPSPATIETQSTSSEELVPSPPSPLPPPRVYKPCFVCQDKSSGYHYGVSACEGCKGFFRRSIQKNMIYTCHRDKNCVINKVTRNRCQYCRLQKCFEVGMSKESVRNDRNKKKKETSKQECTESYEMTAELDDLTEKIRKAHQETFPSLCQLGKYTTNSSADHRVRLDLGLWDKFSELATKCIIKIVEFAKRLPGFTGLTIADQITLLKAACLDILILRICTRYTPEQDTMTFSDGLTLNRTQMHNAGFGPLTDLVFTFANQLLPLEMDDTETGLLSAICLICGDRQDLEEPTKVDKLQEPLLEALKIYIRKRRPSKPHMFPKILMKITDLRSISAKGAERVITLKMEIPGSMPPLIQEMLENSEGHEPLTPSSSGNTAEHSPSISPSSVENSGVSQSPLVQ
# RARb:RXRa, sequence (P19793 whole entry, chain 2 of 2): as the sequence (P19793 whole entry) above
row,Binder,binding signal
1,B1,5.54 PBM z-score against 500 random probes
2,B6,5.57 PBM z-score against 500 random probes
3,B14,-0.17 PBM z-score against 500 random probes
4,B2,5.84 PBM z-score against 500 random probes
5,B3,6.01 PBM z-score against 500 random probes

# Molecular target: VDR:RXRa (Homo sapiens, UniProt P11473;P19793 full;full)
# Assay: as above
# Conditions: tags: His kept;His cleaved; copies: 1;1; label: surface-attached array probe
# Summary of the method: as §1
# VDR:RXRa, sequence (P11473 whole entry, chain 1 of 2): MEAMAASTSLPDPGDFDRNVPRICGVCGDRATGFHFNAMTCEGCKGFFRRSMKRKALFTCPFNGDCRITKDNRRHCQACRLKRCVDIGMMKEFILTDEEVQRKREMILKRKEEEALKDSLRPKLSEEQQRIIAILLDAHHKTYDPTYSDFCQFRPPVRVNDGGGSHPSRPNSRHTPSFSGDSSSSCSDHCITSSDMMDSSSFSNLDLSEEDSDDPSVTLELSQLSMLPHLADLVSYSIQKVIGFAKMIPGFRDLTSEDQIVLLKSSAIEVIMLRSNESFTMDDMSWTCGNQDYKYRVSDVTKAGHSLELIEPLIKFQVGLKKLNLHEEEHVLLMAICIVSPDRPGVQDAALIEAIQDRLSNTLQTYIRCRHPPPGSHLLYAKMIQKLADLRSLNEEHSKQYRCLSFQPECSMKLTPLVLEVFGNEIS
# VDR:RXRa, sequence (P19793 whole entry, chain 2 of 2): as the sequence (P19793 whole entry) above
row,Binder,binding signal
1,B1,6.66 PBM z-score against 500 random probes
2,B6,7.14 PBM z-score against 500 random probes
3,B15,6.76 PBM z-score against 500 random probes
4,B16,3.23 PBM z-score against 500 random probes
5,B2,7.51 PBM z-score against 500 random probes
6,B4,7.07 PBM z-score against 500 random probes
7,B17,0.37 PBM z-score against 500 random probes

# Molecular target: FXR:RXRa (Homo sapiens, UniProt Q96RI1;P19793 full;full)
# Assay: as above
# Conditions: tags: His kept;His cleaved; copies: 1;1; label: surface-attached array probe
# Summary of the method: as §1
# FXR:RXRa, sequence (Q96RI1 whole entry, chain 1 of 2): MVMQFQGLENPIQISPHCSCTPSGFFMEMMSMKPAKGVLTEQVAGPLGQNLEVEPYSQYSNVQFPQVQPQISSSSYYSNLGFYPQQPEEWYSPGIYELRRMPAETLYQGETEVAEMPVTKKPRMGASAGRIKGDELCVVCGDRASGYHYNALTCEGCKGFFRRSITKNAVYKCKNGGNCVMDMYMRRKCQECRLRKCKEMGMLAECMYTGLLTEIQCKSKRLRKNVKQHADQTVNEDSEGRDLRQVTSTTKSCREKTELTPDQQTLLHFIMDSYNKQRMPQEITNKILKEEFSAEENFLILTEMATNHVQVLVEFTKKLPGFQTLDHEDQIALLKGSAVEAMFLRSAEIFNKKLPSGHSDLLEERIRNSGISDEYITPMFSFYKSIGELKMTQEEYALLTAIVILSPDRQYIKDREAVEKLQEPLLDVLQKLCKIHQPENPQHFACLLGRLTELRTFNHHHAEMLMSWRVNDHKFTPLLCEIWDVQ
# FXR:RXRa, sequence (P19793 whole entry, chain 2 of 2): as the sequence (P19793 whole entry) above
row,Binder,binding signal
1,B1,8.27 PBM z-score against 500 random probes
2,B15,7.77 PBM z-score against 500 random probes
3,B3,8.19 PBM z-score against 500 random probes
4,B4,8.73 PBM z-score against 500 random probes
5,B12,-0.27 PBM z-score against 500 random probes

# Molecular target: LXRb:RXRa (Homo sapiens, UniProt P55055;P19793 full;full)
# Assay: as above
# Conditions: tags: His kept;His cleaved; copies: 1;1; label: surface-attached array probe
# Summary of the method: as §1
# LXRb:RXRa, sequence (P55055 whole entry, chain 1 of 2): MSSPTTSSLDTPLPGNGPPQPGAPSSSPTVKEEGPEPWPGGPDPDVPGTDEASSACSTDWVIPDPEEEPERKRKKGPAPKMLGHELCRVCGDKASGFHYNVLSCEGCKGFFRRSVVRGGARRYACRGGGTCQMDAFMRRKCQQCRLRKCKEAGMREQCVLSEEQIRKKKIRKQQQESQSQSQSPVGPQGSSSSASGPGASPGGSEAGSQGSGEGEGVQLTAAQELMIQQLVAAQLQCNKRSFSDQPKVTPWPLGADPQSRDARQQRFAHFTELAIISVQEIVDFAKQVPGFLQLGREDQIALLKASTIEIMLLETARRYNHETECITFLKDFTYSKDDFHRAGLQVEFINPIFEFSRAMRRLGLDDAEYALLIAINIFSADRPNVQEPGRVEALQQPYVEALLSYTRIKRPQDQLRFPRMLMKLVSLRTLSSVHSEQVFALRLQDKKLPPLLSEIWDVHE
# LXRb:RXRa, sequence (P19793 whole entry, chain 2 of 2): as the sequence (P19793 whole entry) above
row,Binder,binding signal
1,B14,-0.41 PBM z-score against 500 random probes
2,B18,-1 PBM z-score against 500 random probes
3,B3,5.84 PBM z-score against 500 random probes
4,B19,0.06 PBM z-score against 500 random probes
5,B20,0.12 PBM z-score against 500 random probes
6,B17,0.07 PBM z-score against 500 random probes

# Molecular target: RARg:RXRa (Homo sapiens, UniProt P13631;P19793 full;full)
# Assay: as above
# Conditions: tags: His kept;His cleaved; copies: 1;1; label: surface-attached array probe
# Summary of the method: as §1
# RARg:RXRa, sequence (P13631 whole entry, chain 1 of 2): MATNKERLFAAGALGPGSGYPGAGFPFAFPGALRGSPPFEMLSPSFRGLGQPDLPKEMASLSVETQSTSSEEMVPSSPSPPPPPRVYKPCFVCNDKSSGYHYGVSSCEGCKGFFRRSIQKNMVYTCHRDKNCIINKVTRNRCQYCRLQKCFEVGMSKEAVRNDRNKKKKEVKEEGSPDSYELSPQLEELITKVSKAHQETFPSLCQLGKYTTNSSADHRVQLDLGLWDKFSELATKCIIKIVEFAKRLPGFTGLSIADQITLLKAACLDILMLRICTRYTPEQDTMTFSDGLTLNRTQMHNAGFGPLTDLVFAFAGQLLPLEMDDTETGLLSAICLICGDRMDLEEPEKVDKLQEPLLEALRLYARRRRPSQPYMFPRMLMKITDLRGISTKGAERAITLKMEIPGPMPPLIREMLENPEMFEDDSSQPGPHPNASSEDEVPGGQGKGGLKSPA
# RARg:RXRa, sequence (P19793 whole entry, chain 2 of 2): as the sequence (P19793 whole entry) above
row,Binder,binding signal
1,B1,7.45 PBM z-score against 500 random probes
2,B14,-0.66 PBM z-score against 500 random probes
3,B2,7.62 PBM z-score against 500 random probes
4,B3,7.39 PBM z-score against 500 random probes
5,B19,-0.64 PBM z-score against 500 random probes

# Molecular target: PXR:RXRa (Homo sapiens, UniProt O75469;P19793 full;full)
# Assay: as above
# Conditions: tags: His kept;His cleaved; copies: 1;1; label: surface-attached array probe
# Summary of the method: as §1
# PXR:RXRa, sequence (O75469 whole entry, chain 1 of 2): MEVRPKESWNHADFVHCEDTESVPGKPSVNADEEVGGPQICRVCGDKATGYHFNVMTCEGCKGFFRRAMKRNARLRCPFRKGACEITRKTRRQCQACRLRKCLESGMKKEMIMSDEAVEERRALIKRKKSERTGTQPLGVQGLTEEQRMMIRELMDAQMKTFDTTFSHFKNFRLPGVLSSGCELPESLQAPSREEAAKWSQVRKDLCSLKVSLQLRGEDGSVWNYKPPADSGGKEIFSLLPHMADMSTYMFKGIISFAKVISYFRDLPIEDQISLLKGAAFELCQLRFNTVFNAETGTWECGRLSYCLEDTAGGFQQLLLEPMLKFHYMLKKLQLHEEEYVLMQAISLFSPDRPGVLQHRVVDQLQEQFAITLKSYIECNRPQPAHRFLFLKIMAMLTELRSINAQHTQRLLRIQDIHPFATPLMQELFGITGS
# PXR:RXRa, sequence (P19793 whole entry, chain 2 of 2): as the sequence (P19793 whole entry) above
row,Binder,binding signal
1,B1,6.45 PBM z-score against 500 random probes
2,B6,7.03 PBM z-score against 500 random probes
3,B15,6.69 PBM z-score against 500 random probes
4,B7,0.04 PBM z-score against 500 random probes
5,B16,3.15 PBM z-score against 500 random probes
6,B14,-0.66 PBM z-score against 500 random probes
7,B8,0.42 PBM z-score against 500 random probes
8,B9,3.42 PBM z-score against 500 random probes
9,B18,-0.65 PBM z-score against 500 random probes
10,B2,6.46 PBM z-score against 500 random probes
11,B3,6.47 PBM z-score against 500 random probes
12,B10,0.4 PBM z-score against 500 random probes
13,B4,7.42 PBM z-score against 500 random probes
14,B11,-1.27 PBM z-score against 500 random probes
15,B19,-0.37 PBM z-score against 500 random probes
16,B12,0.06 PBM z-score against 500 random probes
17,B20,0.19 PBM z-score against 500 random probes
18,B5,-0.74 PBM z-score against 500 random probes
19,B17,-0.14 PBM z-score against 500 random probes
20,B13,-0.52 PBM z-score against 500 random probes
